Where two headings read alike, the source gives them in different places.
Assay: Plasma kinetic after single intravenous administration (HPLC with fluorimetric detector)
Type: in vivo, CD-1(ICR)BR mice
Conditions: mice; for plasma concentration (mean from a triplicate result): LOD=0.0012 nmol/mL; for clearance: read-out: total plasma clearance; for Vd: read-out: volume distribution at steady state (Vdss)
Protocol: The plasma kinetic of the NIRF probe DA364 was evaluated after a single intravenous administration in CD-1(ICR)BR mice.
The fluorescent probe is administered at dose of 0.4 μmol/kg, corresponding to about 10 times the effective dose used in imaging studies (1 nmol/mouse, considering an average mouse body weight of 25 g). Animals were sacrificed at different time points up to and including 14 days after treatment and blood samples were collected for the determination of DA364 content, performed by using an HPLC method coupled with a fluorimetric detector.
The NIR agent DA364, pre-warmed at room temperature, was intravenously injected at a dose of 0.4 μmol/kg, via tail vein, at an injection rate of 1 mL/min with a Harvard infusion pump. The administered dose corresponds to about 10 times the effective dose used in imaging studies. The intravenous administration route was chosen as possible route of exposure for humans.
Animals (three for each time point) were sacrificed before and 5 min, 10 min, 20 min, 30 min, 60 min, 4 h, 24 h, 48 h, 7 days and 14 days after DA364.
The day of sacrifice animals were anesthetized with sevoflurane, at an expiratory concentration of 3-4% in induction and 2-3% in maintenance and then sacrificed by decapitation. Blood for HPLC determinations (at least 0.5 mL) was collected using heparinized tubes. Plasma obtained after centrifugation (2100 g for 10 min) was stored at −80° C. until the day of analysis.
Determination of the amount of DA364 in plasma samples was carried out by an HPLC method coupled with a fluorimetric detector previously prompted.
Plasma samples (S) were prepared by adding 100 μL of acetate buffer and 100 μL of a Methanol Acetonitrile solution (50:50) to 100 μL of diluted plasma. Tubes will be stirred and subsequently centrifuged at 4° C. for 10 minutes at 13000 g. Ten microliters of the clear supernatant will be injected into the HPLC equipment. Appropriate dilution was performed in case of plasma samples too concentrated.
The HPLC determination was performed by interpolating calibration curves of DA364 in plasma and organs, prepared by assaying calibration standard samples (CAL) (6 concentrations, 3 replicates for each concentration) of the fluorescent agent DA364.
Blood for HPLC determinations (at least 0.5 mL) was collected in heparinized tubes. Plasma concentration of DA364 was measured by an HPLC method coupled with a fluorimetric detector.
To evaluate the systemic exposure, Cmax and the area under the plasma DA364 concentration curve as a function of time (AUC) were calculated by non-parametric methods using the computer program WIN-NONLIN 6.3 (WinNonlin 6.3 SCI Software, Lexington, Ky., USA). For the tested dose, a non-compartmental analysis was performed using the average plasma concentrations from 3 animals for each time point. For Cmax and the corresponding tmax the observed values were reported. Area under the plasma concentration-time curve to the last observable plasma concentration (AUC(0 to t)) was calculated from observed data using the logarithmic trapezoidal method. […].

[1] = CD-1(ICR)BR, mouse, plasma, iv, 0.4 umol/kg, 0.4 μmol/kg i.v.
[2] = CD-1(ICR)BR, mouse, plasma, iv, 0.4 umol/kg, 0.4 μmol/kg i.v., per animal

For `CC[N+]1=C(/C=C/C=C/C=C2/N(CCCCCC(=O)NC[C@@H]3C[C@@H]4CC[C@H]5C(=O)N[C@@H](CCCNC(=N)N)C(=O)NCC(=O)N[C@@H](CC(=O)O)C(=O)N[C@H]3C(=O)N45)c3ccc4c(S(=O)(=O)O)cc(S(=O)(=O)O)cc4c3C2(C)C)C(C)(C)c2c1ccc1c(S(=O)(=O)[O-])cc(S(=O)(=O)O)cc21` [DA364], the “plasma concentration (mean from a triplicate result)” value (“plasma concentration” below) (1440 min after 0.4 μmol/kg i.v.) was “<LOD”, the “plasma concentration” value (2880 min after 0.4 μmol/kg i.v.) was “<LOD” and the “plasma concentration” value (10080 min after 0.4 μmol/kg i.v.) was “<LOD”. The “plasma concentration” value (20160 min after 0.4 μmol/kg i.v.) was “<LOD”, the AUC(0-inf) [1] was 1.28 µM·h and the Cmax [1] was 1630 nM. It also gave a Tmax [1] of 5 min, a clearance [2] of 0.15 mL/min and a Vd [2] of 0.01 L. For the same compound, the half-life (CD-1(ICR)BR, mouse, plasma, iv, 0.4 umol/kg, 0.4 μmol/kg i.v., read-out: half life associated with the terminal elimination phase) was 64 min, the clearance [1] was 5 mL/min/kg and the Vd [1] was 0.329 L/kg. The level at time molar at 5 min (CD-1(ICR)BR, mouse, plasma, iv, 0.4 umol/kg, 5 min after 0.4 μmol/kg i.v., read-out: plasma concentration (mean from a triplicate result)) was 1630 nM, the level at time molar at 10 min (CD-1(ICR)BR, mouse, plasma, iv, 0.4 umol/kg, 10 min after 0.4 μmol/kg i.v., read-out: plasma concentration (mean from a triplicate result)) was 1100 nM and the level at time molar at 20 min (CD-1(ICR)BR, mouse, plasma, iv, 0.4 umol/kg, 20 min after 0.4 μmol/kg i.v., read-out: plasma concentration (mean from a triplicate result)) was 612 nM. For the same compound, the level at time molar at 0.5 h (CD-1(ICR)BR, mouse, plasma, iv, 0.4 umol/kg, 30 min after 0.4 μmol/kg i.v., read-out: plasma concentration (mean from a triplicate result)) was 518 nM, the level at time molar at 1 h (CD-1(ICR)BR, mouse, plasma, iv, 0.4 umol/kg, 60 min after 0.4 μmol/kg i.v., read-out: plasma concentration (mean from a triplicate result)) was 278 nM and the level at time molar at 4 h (CD-1(ICR)BR, mouse, plasma, iv, 0.4 umol/kg, 240 min after 0.4 μmol/kg i.v., read-out: plasma concentration (mean from a triplicate result)) was 51 nM.

— patent publication US10682427B2, “Intra-operative imaging” (BRACCO IMAGING S.P.A., priority 2014, dated 2020)
